Patent US20250249092A1 (TORAY INDUSTRIES, published 2025)

T1: CAPRIN-1 on the cell membrane surface of mouse cancer cells (mouse, UniProt Q60865 2-707)
T1 construct: whole, on cells; also called CAPRIN-1 protein
T1 sequence (looked up): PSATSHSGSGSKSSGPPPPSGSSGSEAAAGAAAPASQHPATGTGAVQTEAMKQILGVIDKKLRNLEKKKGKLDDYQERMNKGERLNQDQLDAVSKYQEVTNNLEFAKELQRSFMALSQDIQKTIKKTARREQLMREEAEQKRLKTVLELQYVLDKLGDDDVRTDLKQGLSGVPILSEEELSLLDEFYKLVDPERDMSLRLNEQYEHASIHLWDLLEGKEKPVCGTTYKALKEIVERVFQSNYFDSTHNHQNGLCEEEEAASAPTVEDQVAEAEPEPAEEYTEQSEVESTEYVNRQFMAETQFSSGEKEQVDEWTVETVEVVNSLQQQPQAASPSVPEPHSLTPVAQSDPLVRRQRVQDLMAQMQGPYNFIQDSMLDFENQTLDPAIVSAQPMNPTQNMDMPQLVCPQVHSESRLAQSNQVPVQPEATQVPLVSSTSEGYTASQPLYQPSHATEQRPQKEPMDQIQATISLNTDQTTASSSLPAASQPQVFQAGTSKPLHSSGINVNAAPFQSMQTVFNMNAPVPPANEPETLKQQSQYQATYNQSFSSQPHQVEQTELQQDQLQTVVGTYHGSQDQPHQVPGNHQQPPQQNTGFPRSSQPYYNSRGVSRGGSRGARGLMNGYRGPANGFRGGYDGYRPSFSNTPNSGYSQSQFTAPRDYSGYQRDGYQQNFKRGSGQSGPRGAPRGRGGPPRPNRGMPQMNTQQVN

T2: CAPRIN-1 on the cell membrane surface of human cancer cells (human, UniProt Q14444 2-709)
T2 construct: whole, on cells; also called CAPRIN-1 protein
T2 sequence (looked up): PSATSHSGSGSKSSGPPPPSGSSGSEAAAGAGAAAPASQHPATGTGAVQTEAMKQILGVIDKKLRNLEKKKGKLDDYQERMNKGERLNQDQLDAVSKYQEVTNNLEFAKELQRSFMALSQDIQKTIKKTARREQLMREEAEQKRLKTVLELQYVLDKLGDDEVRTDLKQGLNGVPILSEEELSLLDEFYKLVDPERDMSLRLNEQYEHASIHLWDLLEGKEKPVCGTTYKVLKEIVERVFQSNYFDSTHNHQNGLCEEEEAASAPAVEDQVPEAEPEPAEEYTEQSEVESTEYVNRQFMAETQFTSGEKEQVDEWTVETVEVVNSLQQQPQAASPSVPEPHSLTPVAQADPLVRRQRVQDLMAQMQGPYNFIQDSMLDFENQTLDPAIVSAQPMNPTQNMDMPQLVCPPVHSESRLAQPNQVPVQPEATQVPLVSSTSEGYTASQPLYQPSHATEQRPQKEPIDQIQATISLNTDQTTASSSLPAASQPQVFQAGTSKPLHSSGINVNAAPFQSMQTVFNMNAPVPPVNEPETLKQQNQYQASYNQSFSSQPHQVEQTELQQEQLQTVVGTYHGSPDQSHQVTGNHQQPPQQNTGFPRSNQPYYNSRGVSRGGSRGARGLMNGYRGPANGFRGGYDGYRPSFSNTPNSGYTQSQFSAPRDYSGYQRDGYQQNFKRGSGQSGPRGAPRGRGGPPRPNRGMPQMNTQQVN


Biological target: T1, CAPRIN-1 on the cell membrane surface …
Test: 4T1 cells

| Binder | binding result |
| --- | --- |
| Conjugate 31 (antibody, V domains shown, mouse chimeric antibody #3 (mouse IgG constant regions) + resiquimod, MC-Val-Cit-PAB linker) VH: AVTLDESGGGLQTPGGGLSLVCKASGFTFSSFDMGWVRQAPGKGLEFVAQINDAGSRTWYATAVKGRATISRDNGQTTVRLQLNNLRAEDTGTYYCTRGSGYVGAGAIDAWGHGTEVIVS VL: AALTQPSSVSANPGETVKITCSGGSGYYGWYQQQKSPGSAPVTVIYQNDKRPSDIPSRFSGSGSGSTNTLTITGVQAEDEAVYFCGRYDSTDSGIFGAGTTLTVL | binds |
| Conjugate 35 (antibody, V domains shown, mouse chimeric antibody #3 (mouse IgG constant regions) + resiquimod derivative, SATA and SMCC linkers) VH: AVTLDESGGGLQTPGGGLSLVCKASGFTFSSFDMGWVRQAPGKGLEFVAQINDAGSRTWYATAVKGRATISRDNGQTTVRLQLNNLRAEDTGTYYCTRGSGYVGAGAIDAWGHGTEVIVS VL: AALTQPSSVSANPGETVKITCSGGSGYYGWYQQQKSPGSAPVTVIYQNDKRPSDIPSRFSGSGSGSTNTLTITGVQAEDEAVYFCGRYDSTDSGIFGAGTTLTVL | binds |
| Conjugate 29 (antibody, V domains shown, mouse chimeric antibody #1 (mouse IgG constant regions) + resiquimod, MC-Val-Cit-PAB linker) VH: AVTLDESGGGLQMSRGGLSLVCKASGFDFSSYQMNWIRQAPGKGLEFVAAINKFGNSTGHGAAVKGRVTISRDNGQSTVRLQLNNLRAEDTAIYFCTKHAYGYCGSGTWCAAGEIDAWGHGTEVIVSS VL: QAASTQPSSVSANPGETVEITCSGGGSYSYGWFQQKSPGSAPVTVIYYNNKRPSDIPSRFSGSKSGSTGTLTITGVQADDEAVYYCGSGDSTDTAVFGAGTTLTVLG | binds |
| Conjugate 33 (antibody, V domains shown, mouse chimeric antibody #1 (mouse IgG constant regions) + resiquimod derivative, SATA and SMCC linkers) VH: AVTLDESGGGLQMSRGGLSLVCKASGFDFSSYQMNWIRQAPGKGLEFVAAINKFGNSTGHGAAVKGRVTISRDNGQSTVRLQLNNLRAEDTAIYFCTKHAYGYCGSGTWCAAGEIDAWGHGTEVIVSS VL: QAASTQPSSVSANPGETVEITCSGGGSYSYGWFQQKSPGSAPVTVIYYNNKRPSDIPSRFSGSKSGSTGTLTITGVQADDEAVYYCGSGDSTDTAVFGAGTTLTVLG | binds |

Further lines, results first:

| binding result | Binder |
| --- | --- |
| binds | Conjugate 30 (antibody, V domains shown, mouse chimeric antibody #2 (mouse IgG constant regions) + resiquimod, MC-Val-Cit-PAB linker) VH: EQSLVESGGGLVQPGGSLRLSCAASGFSLSSHSLGWVRQAPGKGLEWIGDIRSGGSAYYANWAKGRFTISRDNSKNTLYLQMNSLRAEDTAVYYCTRTNGPSDLTNRLDLWGQGTLVTVSS VL: QVLTQSPSSLSASVGDRVTINCQASQSLYNNENLAWFQQKPGKVPKRLIYGASTLASGVSSRFSGSGSGTEFTLTISSLQCEDFAIYYCLGEFSCGSADCFAFGGGTKVEIK |
| binds | Conjugate 34 (antibody, V domains shown, mouse chimeric antibody #2 (mouse IgG constant regions) + resiquimod derivative, SATA and SMCC linkers) VH: EQSLVESGGGLVQPGGSLRLSCAASGFSLSSHSLGWVRQAPGKGLEWIGDIRSGGSAYYANWAKGRFTISRDNSKNTLYLQMNSLRAEDTAVYYCTRTNGPSDLTNRLDLWGQGTLVTVSS VL: QVLTQSPSSLSASVGDRVTINCQASQSLYNNENLAWFQQKPGKVPKRLIYGASTLASGVSSRFSGSGSGTEFTLTISSLQCEDFAIYYCLGEFSCGSADCFAFGGGTKVEIK |

Biological target: T2, CAPRIN-1 on the cell membrane surface …
Test: BT474 cells, as shown in Example 5

| Binder | binding result |
| --- | --- |
| Conjugate 8 (antibody, human IgG1, V domains shown, humanized antibody #2 (human IgG1) + resiquimod, MC-Val-Cit-PAB linker) VH: EQSLVESGGGLVQPGGSLRLSCAASGFSLSSHSLGWVRQAPGKGLEWIGDIRSGGSAYYANWAKGRFTISRDNSKNTLYLQMNSLRAEDTAVYYCTRTNGPSDLTNRLDLWGQGTLVTVSS VL: QVLTQSPSSLSASVGDRVTINCQASQSLYNNENLAWFQQKPGKVPKRLIYGASTLASGVSSRFSGSGSGTEFTLTISSLQCEDFAIYYCLGEFSCGSADCFAFGGGTKVEIK | binds |
| Conjugate 22 (antibody, human IgG1, V domains shown, humanized antibody #2 (human IgG1) + resiquimod derivative, SATA and SMCC linkers) VH: EQSLVESGGGLVQPGGSLRLSCAASGFSLSSHSLGWVRQAPGKGLEWIGDIRSGGSAYYANWAKGRFTISRDNSKNTLYLQMNSLRAEDTAVYYCTRTNGPSDLTNRLDLWGQGTLVTVSS VL: QVLTQSPSSLSASVGDRVTINCQASQSLYNNENLAWFQQKPGKVPKRLIYGASTLASGVSSRFSGSGSGTEFTLTISSLQCEDFAIYYCLGEFSCGSADCFAFGGGTKVEIK | binds |

Now from value to binder:

| binding result | Binder |
| --- | --- |
| binds | Conjugate 12 (antibody, human IgG1, V domains shown, humanized antibody #6 (V regions of #2; human IgG1 S239D/I332E) + resiquimod, MC-Val-Cit-PAB linker) VH: EQSLVESGGGLVQPGGSLRLSCAASGFSLSSHSLGWVRQAPGKGLEWIGDIRSGGSAYYANWAKGRFTISRDNSKNTLYLQMNSLRAEDTAVYYCTRTNGPSDLTNRLDLWGQGTLVTVSS VL: QVLTQSPSSLSASVGDRVTINCQASQSLYNNENLAWFQQKPGKVPKRLIYGASTLASGVSSRFSGSGSGTEFTLTISSLQCEDFAIYYCLGEFSCGSADCFAFGGGTKVEIK |
| binds | Conjugate 26 (antibody, human IgG1, V domains shown, humanized antibody #6 (V regions of #2; human IgG1 S239D/I332E) + resiquimod derivative, SATA and SMCC linkers) VH: EQSLVESGGGLVQPGGSLRLSCAASGFSLSSHSLGWVRQAPGKGLEWIGDIRSGGSAYYANWAKGRFTISRDNSKNTLYLQMNSLRAEDTAVYYCTRTNGPSDLTNRLDLWGQGTLVTVSS VL: QVLTQSPSSLSASVGDRVTINCQASQSLYNNENLAWFQQKPGKVPKRLIYGASTLASGVSSRFSGSGSGTEFTLTISSLQCEDFAIYYCLGEFSCGSADCFAFGGGTKVEIK |
